Values of other authors as cited in publication PMC4626678.

Target: Trypsin (Bos taurus) (UniProt P00760)
Sequence (P00760 149-246): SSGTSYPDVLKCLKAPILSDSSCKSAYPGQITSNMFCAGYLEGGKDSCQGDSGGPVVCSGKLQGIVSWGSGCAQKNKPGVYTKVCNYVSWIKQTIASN

Sequence of ShPI-1 (P31713 whole entry): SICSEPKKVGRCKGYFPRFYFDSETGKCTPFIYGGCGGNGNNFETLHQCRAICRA

Question: Which Ki does the source give for ShPI-1 (from UniProt P31713) here?
Answer: Its Ki is 0.11 nM.
